Laboratory results reported in patent US20100015126A1, “Methods of Binding of Cross-Beta Structures By Chaperones” (priority 2006, published 2010).

Assays:
[1] = target: Hypothetical protein/Heat shock 70 kDa protein 5 (glucose-regulated protein, 78 kDa = GRP78 = BiP = HSPA5), as identified in eluates (human) (UniProt P11021); assay: BiP-Sepharose pull-down, RA patient IV synovial fluid (B6), MS of urea eluate; BiP may stem from the column
[2] = target: Hypothetical protein/Heat shock 70 kDa protein 5 (glucose-regulated protein, 78 kDa = GRP78 = BiP = HSPA5), as identified in eluates (human) (UniProt P11021); assay: BiP-Sepharose pull-down, RA synovial fluid sample 1B, 1 M NaCl eluate, MS; BiP may stem from the column
Histone H3.2 (human) = Histone H3.2 (human) (UniProt Q71DI3); assay: BiP-Sepharose pull-down, RA synovial fluid sample 3B, 1 M NaCl eluate, MS; may be indirect
[3] = target: Isoform A of Proteoglycan-4 precursor (human) (UniProt Q92954); assay: as above
[4] = target: IGKV1-5 protein, immunoglobulin kappa variable 1-5 (human) (UniProt P01602); assay: as above
[5] = target: 25 kDa protein/immunoglobulin lambda chain/rheumatoid factor G9 light chain (lambda V3)/IGLC1 protein (human) (UniProt P0CG04); assay: as above
[6] = target: Isoform H17 of Myeloperoxidase precursor (human) (UniProt P05164); assay: as above
[7] = target: Galectin-3-binding protein precursor (human) (UniProt Q08380); assay: as above
[8] = target: FLJ00385 protein (Fragment), immunoglobulin heavy constant mu (human) (UniProt P01871); assay: as above
[9] = target: Ig kappa chain V-IV region Len, immunoglobulin kappa variable 4-1 (human) (UniProt P06312); assay: as above
[10] = target: Clusterin precursor (human) (UniProt P10909); assay: as above
[11] = target: Apolipoprotein A-I precursor (human) (UniProt P02647); assay: as above
[12] = target: Neutrophil defensin 1 precursor (human) (UniProt P59665); assay: as above
[13] = target: IGHM protein, immunoglobulin heavy chain mu (heavy chain disease protein) (human) (UniProt P01871); assay: as above
[14] = target: Haptoglobin precursor (human) (UniProt P00738); assay: as above
[15] = target: Heat shock 70 kDa protein 1L (human) (UniProt P34931); assay: as above
[16] = target: Apolipoprotein A-II precursor (human) (UniProt P02652); assay: BiP-Sepharose pull-down, RA synovial fluid sample 1B, 1 M NaCl eluate, MS; may be indirect
[17] = target: Histone H2B type 2-E (human) (UniProt Q16778); assay: as above
[18] = target: fibronectin 1 isoform 4 preproprotein (human) (UniProt P02751); assay: as above
[19] = target: IGHM protein, coagulation factor VII (serum prothrombin conversion accelerator) (human) (UniProt P08709); assay: as above
[20] = target: Hypothetical protein/Ig kappa chain V-II region RPMI 6410 precursor (human) (UniProt P06310); assay: BiP-Sepharose pull-down, AL amyloidosis patient II plasma (B3), MS of urea eluate; may be indirect
[21] = target: 25 kDa protein/immunoglobulin lambda chain/rheumatoid factor G9 light chain (lambda V3)/IGLC1 protein (human) (UniProt P0CG04); assay: as above
[22] = target: Isoform 1 of Plectin-1 (human) (UniProt Q15149); assay: as above
[23] = target: Complement factor H-related protein 3 precursor (human) (UniProt Q02985); assay: as above
[24] = target: Apolipoprotein E precursor/Apolipoprotein E/Apolipoprotein E3 (Fragment) (human) (UniProt P02649); assay: as above
[25] = target: Dynein heavy chain domain 3/KIAA1503 protein (Fragment) (human) (UniProt Q9P225); assay: as above
[26] = target: V1-3 protein (Fragment)/immunoglobulin lambda variable 2-11 (human) (UniProt P01706); assay: as above
[27] = target: IGLC1 protein (immunoglobulin lambda C1)/immunoglobulin lambda chain/immunoglobulin C1 segment protein (fragment) (human) (UniProt P0CG04); assay: as above
[28] = target: Immunoglobulin heavy constant gamma 3 (G3m marker)/Ig gamma-3 chain C region (human) (UniProt P01860); assay: as above

recombinant human BiP with C-terminal linker, FLAG-tag and His-tag (BiP-FLAG-His), sequence (P11021 other isoform, or with tags, fused parts or gaps): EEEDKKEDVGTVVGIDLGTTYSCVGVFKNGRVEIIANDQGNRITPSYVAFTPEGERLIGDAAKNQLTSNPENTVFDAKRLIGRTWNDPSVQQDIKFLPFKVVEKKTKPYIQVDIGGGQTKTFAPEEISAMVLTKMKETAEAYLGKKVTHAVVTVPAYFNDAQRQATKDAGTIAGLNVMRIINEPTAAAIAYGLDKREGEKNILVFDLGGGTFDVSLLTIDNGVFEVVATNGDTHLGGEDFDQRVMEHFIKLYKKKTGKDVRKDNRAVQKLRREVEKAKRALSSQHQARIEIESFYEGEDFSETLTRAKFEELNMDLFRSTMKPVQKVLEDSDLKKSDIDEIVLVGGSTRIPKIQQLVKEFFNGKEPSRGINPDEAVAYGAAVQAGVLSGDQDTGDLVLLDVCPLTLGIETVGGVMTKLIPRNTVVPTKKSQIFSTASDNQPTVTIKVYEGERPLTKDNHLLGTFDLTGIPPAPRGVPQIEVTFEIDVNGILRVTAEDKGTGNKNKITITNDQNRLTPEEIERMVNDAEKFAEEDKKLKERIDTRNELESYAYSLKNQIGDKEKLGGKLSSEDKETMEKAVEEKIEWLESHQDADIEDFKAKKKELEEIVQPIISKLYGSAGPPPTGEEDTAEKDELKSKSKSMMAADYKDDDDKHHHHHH
Hypothetical protein/Heat shock 70 kDa protein 5 (glucose-regulated protein, 78 kDa = GRP78 = BiP = HSPA5), as identified in eluates (human), sequence (P11021 19-654 limits assumed): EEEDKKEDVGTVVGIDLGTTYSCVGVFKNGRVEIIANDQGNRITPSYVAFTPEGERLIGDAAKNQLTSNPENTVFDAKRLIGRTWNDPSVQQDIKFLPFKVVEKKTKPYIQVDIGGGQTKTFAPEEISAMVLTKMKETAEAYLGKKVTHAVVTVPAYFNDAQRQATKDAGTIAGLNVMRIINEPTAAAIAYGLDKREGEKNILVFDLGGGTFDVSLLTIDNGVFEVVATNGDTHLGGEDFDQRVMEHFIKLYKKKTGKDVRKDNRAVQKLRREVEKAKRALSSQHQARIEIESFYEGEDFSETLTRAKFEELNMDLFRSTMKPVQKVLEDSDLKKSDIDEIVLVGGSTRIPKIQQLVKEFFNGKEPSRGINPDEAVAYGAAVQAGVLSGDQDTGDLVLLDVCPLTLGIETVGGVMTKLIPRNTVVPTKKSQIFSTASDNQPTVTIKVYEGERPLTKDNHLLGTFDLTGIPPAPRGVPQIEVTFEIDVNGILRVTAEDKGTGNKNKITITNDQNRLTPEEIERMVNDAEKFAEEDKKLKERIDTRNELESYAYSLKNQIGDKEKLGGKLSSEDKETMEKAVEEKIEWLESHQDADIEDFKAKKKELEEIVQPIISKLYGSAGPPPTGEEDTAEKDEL
Apolipoprotein A-I precursor (human), sequence (P02647 25-267 limits assumed): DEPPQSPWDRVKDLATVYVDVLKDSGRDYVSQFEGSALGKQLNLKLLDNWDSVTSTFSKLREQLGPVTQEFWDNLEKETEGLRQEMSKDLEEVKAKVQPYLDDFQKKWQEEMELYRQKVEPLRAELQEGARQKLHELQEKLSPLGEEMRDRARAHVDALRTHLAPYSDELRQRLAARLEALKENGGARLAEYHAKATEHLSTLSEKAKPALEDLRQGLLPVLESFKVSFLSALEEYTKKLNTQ
Heat shock 70 kDa protein 1L (human), sequence (P34931 whole entry): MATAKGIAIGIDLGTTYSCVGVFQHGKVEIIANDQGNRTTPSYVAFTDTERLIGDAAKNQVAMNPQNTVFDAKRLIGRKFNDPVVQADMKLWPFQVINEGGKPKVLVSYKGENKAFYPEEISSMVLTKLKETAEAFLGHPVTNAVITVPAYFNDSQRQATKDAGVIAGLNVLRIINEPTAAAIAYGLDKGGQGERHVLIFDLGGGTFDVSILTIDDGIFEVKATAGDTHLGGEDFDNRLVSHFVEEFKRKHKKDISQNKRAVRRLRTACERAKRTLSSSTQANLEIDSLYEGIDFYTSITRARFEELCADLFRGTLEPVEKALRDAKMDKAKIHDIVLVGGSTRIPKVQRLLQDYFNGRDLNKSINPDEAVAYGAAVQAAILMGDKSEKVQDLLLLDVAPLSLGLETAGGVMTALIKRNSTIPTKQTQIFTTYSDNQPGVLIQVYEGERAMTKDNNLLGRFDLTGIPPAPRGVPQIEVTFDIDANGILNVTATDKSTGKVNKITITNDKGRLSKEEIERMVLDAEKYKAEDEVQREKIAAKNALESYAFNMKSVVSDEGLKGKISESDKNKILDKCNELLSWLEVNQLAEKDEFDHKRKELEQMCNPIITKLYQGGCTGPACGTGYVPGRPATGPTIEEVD
Hypothetical protein/Ig kappa chain V-II region RPMI 6410 precursor (human), sequence (P06310 21-120): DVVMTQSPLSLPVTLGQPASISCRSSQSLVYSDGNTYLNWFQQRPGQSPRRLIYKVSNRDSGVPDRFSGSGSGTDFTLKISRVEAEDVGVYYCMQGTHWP
IGLC1 protein (immunoglobulin lambda C1)/immunoglobulin lambda chain/immunoglobulin C1 segment protein (fragment) (human), sequence (P0CG04 whole entry, the tested form may be a part): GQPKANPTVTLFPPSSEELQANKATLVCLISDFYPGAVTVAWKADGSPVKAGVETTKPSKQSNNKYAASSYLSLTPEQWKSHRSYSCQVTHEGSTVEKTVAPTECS
fibronectin 1 isoform 4 preproprotein (human), sequence (P02751 other isoform, or with tags, fused parts or gaps limits assumed): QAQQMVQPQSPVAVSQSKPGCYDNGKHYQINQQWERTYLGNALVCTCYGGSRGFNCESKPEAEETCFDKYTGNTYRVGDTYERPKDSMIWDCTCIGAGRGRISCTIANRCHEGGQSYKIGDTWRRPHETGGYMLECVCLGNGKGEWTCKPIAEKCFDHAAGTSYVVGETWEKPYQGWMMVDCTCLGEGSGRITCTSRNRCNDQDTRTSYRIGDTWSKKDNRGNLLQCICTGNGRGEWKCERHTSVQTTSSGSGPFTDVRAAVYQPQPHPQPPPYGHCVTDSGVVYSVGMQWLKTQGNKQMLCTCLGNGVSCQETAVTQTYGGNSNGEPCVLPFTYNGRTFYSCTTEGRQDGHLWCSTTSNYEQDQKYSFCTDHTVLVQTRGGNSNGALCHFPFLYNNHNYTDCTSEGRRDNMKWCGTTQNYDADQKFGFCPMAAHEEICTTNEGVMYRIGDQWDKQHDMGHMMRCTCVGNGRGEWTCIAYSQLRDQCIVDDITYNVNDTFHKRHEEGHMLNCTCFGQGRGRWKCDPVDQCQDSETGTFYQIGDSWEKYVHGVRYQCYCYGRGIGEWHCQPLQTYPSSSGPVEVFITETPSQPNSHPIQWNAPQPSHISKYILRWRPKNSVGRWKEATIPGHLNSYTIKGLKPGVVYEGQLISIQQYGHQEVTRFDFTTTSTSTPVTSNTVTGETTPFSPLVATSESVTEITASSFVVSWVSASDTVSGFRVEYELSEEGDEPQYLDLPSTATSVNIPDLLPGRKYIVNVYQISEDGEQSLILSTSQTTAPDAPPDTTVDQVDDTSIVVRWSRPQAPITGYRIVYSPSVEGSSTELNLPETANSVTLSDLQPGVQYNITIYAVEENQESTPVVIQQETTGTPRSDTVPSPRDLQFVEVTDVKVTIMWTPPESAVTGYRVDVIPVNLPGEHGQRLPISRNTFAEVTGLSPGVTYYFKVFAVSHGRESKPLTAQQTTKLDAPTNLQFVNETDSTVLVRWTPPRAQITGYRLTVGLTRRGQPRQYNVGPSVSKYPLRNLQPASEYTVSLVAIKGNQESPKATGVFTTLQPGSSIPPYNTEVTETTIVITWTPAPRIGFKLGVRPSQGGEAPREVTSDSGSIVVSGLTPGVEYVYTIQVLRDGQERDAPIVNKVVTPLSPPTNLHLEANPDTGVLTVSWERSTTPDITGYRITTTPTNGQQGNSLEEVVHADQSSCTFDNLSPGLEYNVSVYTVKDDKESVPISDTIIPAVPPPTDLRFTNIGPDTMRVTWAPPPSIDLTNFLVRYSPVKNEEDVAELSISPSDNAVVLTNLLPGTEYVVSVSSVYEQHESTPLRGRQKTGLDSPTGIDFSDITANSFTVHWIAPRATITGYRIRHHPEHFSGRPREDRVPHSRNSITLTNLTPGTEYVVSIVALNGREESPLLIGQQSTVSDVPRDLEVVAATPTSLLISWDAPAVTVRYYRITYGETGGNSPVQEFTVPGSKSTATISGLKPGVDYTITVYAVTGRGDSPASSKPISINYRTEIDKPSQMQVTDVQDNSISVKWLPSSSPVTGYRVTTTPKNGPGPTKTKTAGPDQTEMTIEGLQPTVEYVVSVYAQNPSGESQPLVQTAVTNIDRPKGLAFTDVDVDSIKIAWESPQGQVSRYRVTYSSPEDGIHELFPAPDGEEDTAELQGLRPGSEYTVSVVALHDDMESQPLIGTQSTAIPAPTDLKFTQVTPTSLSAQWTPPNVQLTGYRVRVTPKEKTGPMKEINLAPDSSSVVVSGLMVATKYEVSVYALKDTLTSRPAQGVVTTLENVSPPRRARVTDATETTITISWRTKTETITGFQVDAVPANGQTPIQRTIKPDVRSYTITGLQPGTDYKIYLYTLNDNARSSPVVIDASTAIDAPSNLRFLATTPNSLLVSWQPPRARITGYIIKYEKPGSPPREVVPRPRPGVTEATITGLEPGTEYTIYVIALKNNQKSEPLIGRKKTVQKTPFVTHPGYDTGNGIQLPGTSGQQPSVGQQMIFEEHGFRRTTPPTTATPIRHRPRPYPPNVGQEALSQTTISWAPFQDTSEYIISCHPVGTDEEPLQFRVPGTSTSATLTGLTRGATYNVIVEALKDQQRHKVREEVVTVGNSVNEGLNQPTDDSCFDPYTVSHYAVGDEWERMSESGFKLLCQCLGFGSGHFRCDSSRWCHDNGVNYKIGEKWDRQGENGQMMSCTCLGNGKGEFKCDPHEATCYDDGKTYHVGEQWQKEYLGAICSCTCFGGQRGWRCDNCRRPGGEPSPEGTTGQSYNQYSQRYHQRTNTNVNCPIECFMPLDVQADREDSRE
Complement factor H-related protein 3 precursor (human), sequence (Q02985 19-330 limits assumed): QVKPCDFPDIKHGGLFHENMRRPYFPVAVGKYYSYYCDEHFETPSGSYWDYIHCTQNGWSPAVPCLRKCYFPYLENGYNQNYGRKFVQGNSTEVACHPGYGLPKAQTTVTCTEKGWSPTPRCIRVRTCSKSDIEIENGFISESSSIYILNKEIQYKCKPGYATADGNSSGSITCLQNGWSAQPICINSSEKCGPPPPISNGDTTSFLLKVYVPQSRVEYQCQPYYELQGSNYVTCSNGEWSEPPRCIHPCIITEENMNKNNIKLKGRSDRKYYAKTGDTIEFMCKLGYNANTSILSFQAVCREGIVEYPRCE

- # of peptides [1]: 31 peptides
- # of unique peptides [2]: 21 peptides
- # of unique peptides (Histone H3.2 (human)): 1 peptides
- # of unique peptides [3]: 2 peptides
- # of unique peptides [4]: 5 peptides
- # of unique peptides [5]: 1 peptides
- # of unique peptides [6]: 1 peptides
- # of unique peptides [7]: 1 peptides
- # of unique peptides [8]: 2 peptides
- # of unique peptides [9]: 1 peptides
- # of unique peptides [10]: 1 peptides
- # of unique peptides [11]: 8 peptides
- # of unique peptides [12]: 1 peptides
- # of unique peptides [13]: 1 peptides
- # of unique peptides [14]: 3 peptides
- # of unique peptides [15]: 1 peptides
- # of unique peptides [16]: 1 peptides
- # of unique peptides [17]: 2 peptides
- # of unique peptides [18]: 10 peptides
- # of unique peptides [19]: 2 peptides
- # of peptides [20]: 1 peptides
- # of peptides [21]: 1 peptides
- # of peptides [22]: 1 peptides
- # of peptides [23]: 1 peptides
- # of peptides [24]: 1 peptides
- # of peptides [25]: 2 peptides
- # of peptides [26]: 2 peptides
- # of peptides [27]: 1 peptides
- # of peptides [28]: 2 peptides
Substance: recombinant human BiP with C-terminal linker, FLAG-tag and His-tag (BiP-FLAG-His) (from UniProt P11021 19-654)
